Test results reported in paper PMC8752864 (Nature Communications, 2022).
Substitutions are numbered along the chain they refer to.

B1: Nb8197 (VHH)
VHH: QVQLQESGGGLVQPGGSLRLSCAASGFTFSSYAMSWVRQAPGKGLEWVSSITSAFGRTSYVSSVKGRFTISRDNAKNTLYLQMNSLKPEDTAVYYCAQGASWPYRYRGQGTQVTVSS
B2: polymerase basic 2 (PB2) subunit of influenza A/Brevig Mission/1/1918 (H1N1) virus (natural protein)
chain: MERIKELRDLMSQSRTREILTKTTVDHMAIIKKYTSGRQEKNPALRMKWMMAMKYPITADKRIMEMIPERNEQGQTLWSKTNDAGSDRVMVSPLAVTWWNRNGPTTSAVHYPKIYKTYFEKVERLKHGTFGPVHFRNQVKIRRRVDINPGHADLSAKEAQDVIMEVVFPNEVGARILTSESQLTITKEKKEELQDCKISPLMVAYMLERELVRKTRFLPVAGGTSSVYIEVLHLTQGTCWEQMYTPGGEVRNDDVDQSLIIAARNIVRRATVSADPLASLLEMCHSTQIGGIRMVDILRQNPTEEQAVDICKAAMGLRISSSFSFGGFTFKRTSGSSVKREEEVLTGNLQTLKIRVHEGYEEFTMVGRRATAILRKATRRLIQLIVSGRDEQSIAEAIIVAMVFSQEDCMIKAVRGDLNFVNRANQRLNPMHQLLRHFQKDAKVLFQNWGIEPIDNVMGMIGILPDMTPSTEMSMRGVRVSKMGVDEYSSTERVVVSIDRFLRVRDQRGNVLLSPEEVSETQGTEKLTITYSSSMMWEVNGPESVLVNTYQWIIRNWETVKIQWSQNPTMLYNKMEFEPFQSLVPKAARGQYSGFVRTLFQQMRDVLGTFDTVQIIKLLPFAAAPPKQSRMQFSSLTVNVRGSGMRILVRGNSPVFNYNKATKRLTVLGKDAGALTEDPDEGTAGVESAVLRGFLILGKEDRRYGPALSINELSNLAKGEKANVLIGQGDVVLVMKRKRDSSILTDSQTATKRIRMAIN
notes: the PB2 chain of m1
B3: RNA polymerase of influenza A/Brevig Mission/1/1918 (H1N1) virus, heterotrimer of PA, PB1 and PB2 (complex)
chain 1: […]
chain 2: MDVNPTLLFLKVPAQNAISTTFPYTGDPPYSHGTGTGYTMDTVNRTHQYSEKGRWTTNTETGAPQLNPIDGPLPEDNEPSGYAQTDCVLEAMAFLEESHPGIFENSCLETMEVVQQTRVDKLTQGRQTYDWTLNRNQPAATALANTIEVFRSNGLTANESGRLIDFLKDVMESMDKEEMEITTHFQRKRRVRDNMTKKMVTQRTIGKKKQRLNKRSYLIRALTLNTMTKDAERGKLKRRAIATPGMQIRGFVYFVETLARSICEKLEQSGLPVGGNEKKAKLANVVRKMMTNSQDTELSFTITGDNTKWNENQNPRMFLAMITYITRNQPEWFRNVLSIAPIMFSNKMARLGKGYMFESKSMKLRTQIPAEMLASIDLKYFNDSTRKKIEKIRPLLIDGTASLSPGMMMGMFNMLSTVLGVSILNLGQKRYTKTTYWWDGLQSSDDFALIVNAPNHEGIQAGVDRFYRTCKLLGINMSKKKSYINRTGTFEFTSFFYRYGFVANFSMELPSFGVSGINESADMSIGVTVIKNNMINNDLGPATAQMALQLFIKDYRYTYRCHRGDTQIQTRRSFEIKKLWEQTRSKAGLLVSDGGPNLYNIRNLHIPEVCLKWELMDEDYQGRLCNPLNPFVSHKEIESVNNAVMMPAHGPAKNMEYDAVATTHSWIPKRNRSILNTSQRGILEDEQMYQKCCNLFEKFFPSSSYRRPVGISSMVEAMVSRARIDARIDFESGRIKKEEFAEIMKICSTIEELRRQK
chain 3: B2 chain
notes: also called 1918 polymerase; 1918 pandemic influenza virus polymerase; copies: + +
B4: Nb8198 (VHH)
VHH: QVQLQESGGGLVQTGDSLRLSCAGAERSFNSYTMGWFRQAPGKEREFVAAIAFSGGFTYYAEAVKGRFTISRDSGKNTVYLQMNSLKPEDTAVYYCAARFYGGGYYYQQREYSFWGQGTQVTVSS
notes: source: E. coli WK6, periplasm, purified (Ni-NTA)
B5: Nb8199 (VHH)
VHH: QVQLQESGGGLVQAGGSLRLSCAASGRTFSSYAMGWFRQAPGKEREFVGAIDLSGLYKHYGDSVKGRFTISRDNAKNTVYLQMSSLKPEDTAVYYCAAAGIYYAGSYSPLLYDYWGQGTQVTVSS
notes: as for B4
B6: Nb8200 (VHH)
VHH: QVQLQESGGGLVQAGDSLRLSCAASGRTFSGYIMAWFRQTPGKERELVARLGPSSSIQYYRDSVKGRFTLSRDNAKNTLYLQMNSLKPEDTAVYYCAFTLKWSSDYRSHNAYDYWGQGTQVTVSS
notes: as for B4
B7: Nb8201 (VHH)
VHH: QVQLQESGGGLVQPGGSLRLSCAASGSDFSLYAMGWYRQVPGKERELVATITIGGTTNFADSARGRFTISRGNAKNTVYLQMNNLKPEDTAVYYCWSRGSYGRYLETWGQGTQVTVSS
notes: as for B4
B8: Nb8202 (VHH)
VHH: QVQLQESGGGLVQAGESLRLSCAASGGTFIYYGMGWFRQAPGKEREFVASISQTGGDIYAMDFVKGRFTISRDNSKNTLYLQMNSLKPEDTAVYYCAAATSPYASRKLYEYKYWGQGTQVTVSS
notes: as for B4
B9: Nb8203 (VHH)
VHH: QVQLQESGGGLVQAGGSLRLSCAAPGRILTLSRYVMGWFRQAPGKEREFVAAISPGTTDTDYADSVKGRFTISRDNAKNTVYLEMSSLKPEDTAVYVCAAGAASSGTVYRVYGLYNYRGQGTQVTVSS
B10: Nb8204 (VHH)
VHH: QVQLQESGGGLVQPRGSLRLSCAASGSIAIIYTMGWYRQAPLKERELVATVTYGGNTNYADPVKGRFTISRDNNKNTEYLQMSSLQPEDTAVYYCYMRVRSTAWDTDDYWGQGTQVTVSS
notes: as for B4
B11: Nb8205 (VHH)
chain: QVQLQESGGGMVQPGGSLRLSCLASGFTFSNYAMTWVRQAPGKGPEWVSMVSNNGADTTYTDSVKGRFTISRDNAKNTLYLRMNNVKPEDSAVYYCAKRRYGGIWTGQPTDYDYLGQGTVTVSS
B12: Nb8206 (VHH)
VHH: QVQLQESGGGLVQPGGSLRLSCTASGGIFGISAMGWYRQAPGKERELVARITRSGSTNFADSVKDRFTISRDATENTVVLQMNSLKAEDTAVYYCNGQFWEVDNGNIDLWGQGTQVTVSS
notes: as for B4
B13: Nb8207 (VHH)
VHH: QVQLQESGGGLVQAGASLRLSCTASGRTSSTYPMGWFRQGPGKEREFVAAISWAGSSTYYGDFVKGRFTISRDNAKNTVYLQMNSLKPEDTAVYYCARAARPYAYGLDYSTEASYDYWGQGTQVTVSS
notes: as for B4
B14: Nb8209 (VHH)
VHH: QVQLQESGGGLVQPGGSLRLSCAASGNIRSINTMSWYRQAPGKERELVASDSTGGSTGGSTVYAASVKGRFTISRDNAKNTVYLQMNMLKPEDTAVYYCYVYGMSRFGSTISTLFGQGTQVTVSS
notes: as for B4
B15: Nb8210 (VHH)
VHH: B8 VHH with F29L, T54A, M83L, S85T, E110D
notes: as for B4
B16: Nb8189 (VHH)
VHH: B7 VHH with I53S
notes: as for B4
B17: Nb8190 (VHH)
VHH: QVQLQESGGGLVQAGGSLRLSCAASGRSLSDYTMGWFRQAPGKEREFVTAITSDGVYANYADSVKGRFTISRDNAKNTAYLQMNSLKPEDTAVYYCAGKTRRSMLMTTGYDYWGQGTQVTVSS
notes: as for B4
B18: Nb8191 (VHH)
VHH: QVQLQESGGGLVQPGGSLRLSCTASESVASINIVGWYRQISGKERELVARISSGGTITDYSDSVKGRFTITRDNTKNTVYLQMNSLKRGDTAVYYCNAEYQYGSDWFHIWGQGTQVTVSS
notes: as for B4
B19: Nb8192 (VHH)
VHH: QVQLQESGGGLVQAGASLRLSCAASGRTFMGWFRQAPGQEREFVAAIDAFGINTYYADSAKGRFTISRDSAKNTVYLQMNSLKPEDTAVYYCAATLRGTQPGAVMQWRPDYWGQGTQVTVSS
notes: as for B4
B20: Nb8196 (VHH)
VHH: QVQLQESGGGLVQAGDSLRLSCTTSGSSLSRYGVGWFRQAPGEEREFGASISWNGATYYADSVKGRFTISRDNAKNTVYLQMNSLKAEDTAVYYCAARSDGYLTPYLSPVYWGQGTQVTVSS
notes: as for B4
B21: Nb8193 (VHH)
VHH: QVQLQESGGGLVQPGGSLRLSCAASGFTFKMYAMSWVRQAPGKGLEWVSSINSAGGSTSYVDSVKGRFTISRDNAKNTLYLQMNSLKPDDTAVYYCVQGRNWPYDYRGQGTQVTVSS
notes: as for B4
B22: Nb8194 (VHH)
VHH: QVQLQESGGGLVQPGGSLRLSCAASGFTFSNYYMSWVRQAPGEGREWVSSINRDGSNTYYADSVKGRFTIARDNVKNTLYLLMDSLKSDDTAVYYCTKGSNWPYDNWGQGTQVTVSS
notes: as for B4
B23: Nb8208 (VHH)
VHH: QVQLQESGGGLVQPGGSLRLSCAASGRTFSMYAMAWFRQAPGKQREFVGTISRSGDYALHADAVKGRFTISRDNAKNTVYLQMNSLKLEDTAVYYCAAGAYHSKDKTLYDYWGQGTQVTVSS
notes: as for B4

target: T1, PB2 cap-mid-link construct (cap-binding and mid-link domains) from influenza A/duck/Fujian/01/2002 (H5N1) (Influenza A virus …); assay: not given; details: not given

| Binder | binding result |
| --- | --- |
| B1 | binds |

target: T2, polymerase acidic (PA) subunit of influenza A/Brevig Mission/1/1918 (H1N1) virus (influenza A/Brevig Mission/1/1918 …, UniProt Q3HM39); assay: cryo-EM structure; details: both partners purified
T2 construct: the PA chain of m1

| Binder | binding result |
| --- | --- |
| B2 | binds |

Target: the molecule itself
Assay: cryo-EM structure
Details: not given

| Binder | binding result |
| --- | --- |
| B3 | binds |

target: T3, RNA polymerase of influenza A/Brevig Mission/1/1918 (H1N1) virus, heterotrimer of PA, PB1 and PB2 (influenza A/Brevig Mission/1/1918 …, UniProt Q3HM39;Q3HM40;Q3HM41); assay: cryo-EM structure; details: both partners purified
T3 construct: also called 1918 polymerase; 1918 pandemic influenza virus polymerase; copies: + +

| Binder | binding result |
| --- | --- |
| B4 | binds |
| B5 | binds |
| B6 | binds |
| B7 | binds |
| B8 | binds |
| B9 | binds |
| B10 | binds |
| B11 | binds |
| B12 | binds |
| B13 | binds |
| B14 | binds |
| B15 | binds |
| B16 | binds |
| B17 | binds |
| B18 | binds |
| B19 | binds |
| B20 | binds |

target: T1, PB2 cap-mid-link construct (cap-binding …); assay: SEC; details: both partners purified

| Binder | binding result |
| --- | --- |
| B21 | binds |
| B22 | binds |
| B23 | binds |
